Literature values as cited in paper PMC11076006.

Target: TLR4 (Homo sapiens) (UniProt O00206)
Chain of UniProt O00206 (O00206 24-839): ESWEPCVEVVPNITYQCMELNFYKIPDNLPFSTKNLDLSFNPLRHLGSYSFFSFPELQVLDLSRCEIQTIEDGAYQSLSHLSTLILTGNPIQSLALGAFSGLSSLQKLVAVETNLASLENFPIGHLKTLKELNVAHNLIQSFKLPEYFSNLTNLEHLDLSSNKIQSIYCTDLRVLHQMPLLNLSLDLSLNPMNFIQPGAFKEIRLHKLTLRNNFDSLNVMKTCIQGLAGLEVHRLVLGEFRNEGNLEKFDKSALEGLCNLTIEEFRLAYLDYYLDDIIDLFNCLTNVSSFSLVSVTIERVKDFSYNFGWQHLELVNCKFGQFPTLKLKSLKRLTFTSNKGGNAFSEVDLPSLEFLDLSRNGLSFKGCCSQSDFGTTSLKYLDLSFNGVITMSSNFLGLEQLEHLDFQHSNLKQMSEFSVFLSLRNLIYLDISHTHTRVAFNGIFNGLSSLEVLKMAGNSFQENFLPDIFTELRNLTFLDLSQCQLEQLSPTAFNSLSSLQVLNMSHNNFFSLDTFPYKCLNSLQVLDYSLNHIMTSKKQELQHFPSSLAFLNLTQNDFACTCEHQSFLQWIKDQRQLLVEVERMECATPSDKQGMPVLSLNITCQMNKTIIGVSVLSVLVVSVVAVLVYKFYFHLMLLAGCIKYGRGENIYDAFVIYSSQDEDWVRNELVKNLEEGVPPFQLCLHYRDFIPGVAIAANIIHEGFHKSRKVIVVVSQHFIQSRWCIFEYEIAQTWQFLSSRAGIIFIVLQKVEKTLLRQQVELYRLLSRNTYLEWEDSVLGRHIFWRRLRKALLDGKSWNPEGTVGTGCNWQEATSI

Kd: 3.2 nM
Substance: S100A9 (from UniProt P06702)
